5 molecules from patent publication US20210155689A1 (SHANGHAI PHARMAEXPLORER, published 2021) can be followed below.

One assay has as its target T1, APSSWGPRPRRYK-Biotin (human).
T1 construct: Overlapping peptide of the outer loop of human LAG-3; also called LAG-3 Extra cyclic peptide
T1 peptide: APSSWGPRPRRYK-{Biotin′}
Nature of the assay: peptide scanning ELISA, biotin peptide on streptavidin. The protocol: (§1) Fifteen overlapping peptides including the full length of the outer loop sequence were prepared and biotin was coupled to each C-terminus. Enzyme-linked immunosorbent assay (ELISA) was used to detect the binding of antibodies to these peptides. Streptavidin (sigma, Cat #M5432) was diluted with PBS to a final concentration of 1.0 μg/ml, and then added as 100 μl per well to a 96-well ELISA plate. The plate was sealed with plastic film and incubated overnight at 4° C. The plate was washed 2 times with the plate washing solution (PBS+0.01% Tween20) on the next day, and added with the blocking solution (PBS+0.01% Tween20+1% BSA) and blocked at room temperature for 1-2 hours. The blocking solution was poured off, and biotinylated peptides was added to a final concentration of 1 ug/ml, as 100 ul per well to the 96-well ELISA plate, incubated at 37° C. for 1-2 hours, then washed with plate washing solution (PBS+0.01% Tween20)2-3 times. Then the antibody samples to be tested were incubated as 100 μl per well at 37° C. for 1-2 hours, and then the plate was washed 2-3 times with a plate washing solution (PBS+0.01% Tween20). HRP (horseradish peroxidase) labeled secondary antibody was added, and the plate was incubated at 37° C. for 1-2 hours, and washed 2-3 times with a plate washing solution (PBS+0.01% Tween20). 100 μl of TMB substrate was added to each well. After incubated at room temperature for 15-30 minutes, the plate was added with 100 μl of stop solution (1.0N HCl) to each well.
For orientation: ELISA stands for enzyme-linked immunosorbent assay.

In assay [1] the target is T2, GPPAAAPGHPLAPGPHPAAPSSWGPRPRRYK-biotin (full length of the outer loop) (human, biotin coupled to the C-terminus (K-biotin)).
T2 construct: Printed over two rows (r36 and r37; again r54 and r55); also called LAG-3 Extra cyclic peptide
T2 peptide: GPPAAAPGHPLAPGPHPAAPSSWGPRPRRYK
Described as above. The protocol:
as §1

The target of another assay is T3, PSSWGPRPRRYTK-Biotin (human).
T3 construct: Overlapping peptide of the outer loop of human LAG-3; also called LAG-3 Extra cyclic peptide
T3 peptide: PSSWGPRPRRYTK-{Biotin′}
The assay is described as above. The protocol: as §1

A further assay addresses T4, PAAPSSWGPRPRK-Biotin (human).
T4 construct: Overlapping peptide of the outer loop of human LAG-3; also called LAG-3 Extra cyclic peptide
T4 peptide: PAAPSSWGPRPRK-{Biotin′}
Described as above. The method, then: as §1

The target of the next assay is T5, SSWGPRPRRYTVK-Biotin (human).
T5 construct: Overlapping peptide of the outer loop of human LAG-3; also called LAG-3 Extra cyclic peptide
T5 peptide: SSWGPRPRRYTVK-{Biotin′}
Described as above. The protocol:
as §1

Assay [2] deals with T6, human LAG-3 (full length, on the cell surface) (human, UniProt P18627 23-525).
T6 sequence: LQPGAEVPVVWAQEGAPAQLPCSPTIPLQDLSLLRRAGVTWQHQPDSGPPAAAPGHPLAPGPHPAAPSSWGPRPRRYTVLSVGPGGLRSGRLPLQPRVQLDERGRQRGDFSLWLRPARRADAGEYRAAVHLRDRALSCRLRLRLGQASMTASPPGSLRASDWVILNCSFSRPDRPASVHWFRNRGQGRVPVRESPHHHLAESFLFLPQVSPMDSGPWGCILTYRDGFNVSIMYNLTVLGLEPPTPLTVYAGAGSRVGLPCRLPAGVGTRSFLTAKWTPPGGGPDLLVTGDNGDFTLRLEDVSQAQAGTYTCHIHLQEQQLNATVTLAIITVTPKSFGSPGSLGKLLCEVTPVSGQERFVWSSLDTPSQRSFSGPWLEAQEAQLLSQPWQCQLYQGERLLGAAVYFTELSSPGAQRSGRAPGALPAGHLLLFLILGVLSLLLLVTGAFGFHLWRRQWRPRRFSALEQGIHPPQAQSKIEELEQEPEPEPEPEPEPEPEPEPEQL
As to the kind of experiment: cell-based or functional assay.

Assay [3] addresses T7, monkey LAG-3 (full length, on the cell surface) (monkey, UniProt P18627 24-525 (human entry)).
T7 construct: also called HEK293-cLAG-3; monkey LAG-3 protein on the cell surface
T7 chain: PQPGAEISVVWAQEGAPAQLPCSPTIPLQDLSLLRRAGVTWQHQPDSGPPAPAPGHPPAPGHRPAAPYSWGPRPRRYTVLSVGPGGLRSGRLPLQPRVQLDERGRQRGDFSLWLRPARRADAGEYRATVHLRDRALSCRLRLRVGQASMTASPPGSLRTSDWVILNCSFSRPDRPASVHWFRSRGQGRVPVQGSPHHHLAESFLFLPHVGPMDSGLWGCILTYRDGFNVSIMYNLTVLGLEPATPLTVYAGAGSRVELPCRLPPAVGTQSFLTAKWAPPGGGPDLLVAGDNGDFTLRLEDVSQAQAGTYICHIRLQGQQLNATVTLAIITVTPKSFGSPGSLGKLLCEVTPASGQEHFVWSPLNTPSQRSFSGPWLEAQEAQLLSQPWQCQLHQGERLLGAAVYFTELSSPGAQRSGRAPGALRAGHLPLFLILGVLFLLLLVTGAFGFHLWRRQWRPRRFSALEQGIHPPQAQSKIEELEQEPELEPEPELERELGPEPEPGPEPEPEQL
As to the kind of experiment: FACS, HEK293-cLAG-3; 0.000 nM. An excerpt:
The pIRES plasmid with the monkey-derived full-length gene was transfected into the HEK293 cell line to construct a HEK293 stable cell line containing monkey LAG-3 (herein referred to as HEK293-cLAG-3 stable cell line). The HEK293-hLAG-3 stable cell line and HEK293-cLAG-3 stable cell line were expanded in a T-75 cell culture flask to a 90% confluence. The medium was aspirated, and the cells were washed with HBSS (Hanks' Balanced Salt Solution) 1-2 times, then treated with a enzyme-free cell dissociation fluid (Versene solution: Life technology) and the cells were collected. The cells were washed with HBSS buffer for 1-2 times. After counted, the cells were diluted with HBSS to 1-2×10⁶ cells per ml, added with 1% goat serum blocking solution, incubated on ice for 20-30 minutes, and then washed with HBSS for 2 times by centrifugation. The collected cells were suspended in the FACS buffer (HBSS+1% BSA) to 2×10⁶ cells/ml, added as 100 microliters per well to a 96-well FACS reaction plate, added with 100 microliters per well of the antibody sample to be tested, incubated on ice for 1-2 hours. The plate was washed twice with the FACS buffer by centrifugation, added with 100 microliters of fluorescent (Alexa 488)-labeled secondary antibodies per well, and incubated on ice for 0.5-1.0 hours. The plate was washed 2-3 times with FACS buffer by centrifugation, added with 100 μl fixative solution (4% Paraformaldehyde) per well to suspend the cells. 5-10 minutes later, it was washed 1-2 times with FACS buffer by centrifugation. The cells were suspended with 100 microliters of FACS buffer, FACS (FACSCalibur, BD) was used for detection and the results were analyzed.
For orientation: A flow cytometer gives signals particle by particle.

Primed or numbered codes have the meaning given here. No end group written: not given here. Biotin′ = biotin label at the C-terminus

B1: 405B8H3 (mouse antibody purified from hybridoma) (antibody, V domains shown)
VH: QVQLQQSGAELVRPGASVTLSCKASGYTFTDYEMHWVKQTPVHGLEWIGATDPETGNSAYNQKFKGKAIMTADKSSSTAYMELRSLTSEDSAVYYCISTGWNDWGQGTSLTVSS
VL: DIKMTQSPSSMYASLGERVTITCKASQDINSYLSWFQQKPGKSPKTLIYRADRLLDGVPSRFSGSGSGQDYSLTISSLEYGDMGIYYCLQYDEFPYTFGGGTKLEIK
notes: also called mAb103-405B8H3; 405B81-13
Turning to B1, the binding result (with APSSWGPRPRRYK-Biotin; in assay [1]; in the assay with PSSWGPRPRRYTK-Biotin; with PAAPSSWGPRPRK-Biotin; in the assay with SSWGPRPRRYTVK-Biotin) was “binds” each time. Besides, the “mIL-2 (pg/mL), antigen-specific T lymphocyte stimulation test; antibody 0.016 ug/mL” value (from here on “mIL-2 (pg/mL) … antibody 0.016 ug/mL”) in assay [2] is 205 pg/mL. In assay [2], the “mIL-2 (pg/mL), antigen-specific T lymphocyte stimulation test; antibody 0.08 ug/mL” value (shortened to “mIL-2 (pg/mL) … antibody 0.08 ug/mL”) was 204 pg/mL. Moreover, in assay [2], the “mIL-2 (pg/mL), antigen-specific T lymphocyte stimulation test; antibody 2 ug/mL” value (shortened to “mIL-2 (pg/mL) … antibody 2 ug/mL”) is 435 pg/mL. The “mIL-2 (pg/mL), antigen-specific T lymphocyte stimulation test; antibody 4 ug/mL (so in the source)” value (“mIL-2 (pg/mL) … (so in the source)” below) in assay [2] was 392 pg/mL. Also, in assay [2], the “mIL-2 (pg/mL), antigen-specific T lymphocyte stimulation test; antibody 10 ug/mL” value (“mIL-2 (pg/mL) … antibody 10 ug/mL” for short) turned out to be 441 pg/mL. This molecule also gave a Mean fluorescence intensity in assay [3] of 3.9 MFI.

B2: 105F1E10 (mouse antibody purified from hybridoma) (antibody, V domains shown)
VH: EVQLQQSGPELVKPGASVKMSCRASGYTFTDFKMHWMKQSHGKSLEWIGYIAPNNGGTAYNQKFRGKATLTVNESSNTAYMELRSLTSEDSAVYYCVDWDDVDYWGQGTTLTVSS
VL: DIKMTQSPSSMYASLGERVTITCKASQDINSYLSWFQQKSGKSPKTLIYRANRLVDGVPSRFSGSGSGQDYSLTISSLEYEDMGIYYCLQYVEFPLTFGAGTKLELK
notes: also called mAb009-105F1E10
B2: the binding result (with APSSWGPRPRRYK-Biotin; in assay [1]; with PSSWGPRPRRYTK-Biotin; in the assay with PAAPSSWGPRPRK-Biotin; with SSWGPRPRRYTVK-Biotin) was “binds” in each case. This molecule yielded a Mean fluorescence intensity in assay [3] of 3.9 MFI.

B3: 409B11E12 (mouse antibody purified from hybridoma) (antibody, V domains shown)
VH: QVQLQQSGAELVRPGASVTLSCKASGYTFTDYEMHWVKQTTVHGLEWIGATDPETSYSAYNQKFKGKAILTADKSSSTAYMELRSLTSEDSAVYYCIATGWNDWGQGTSLTVSS
VL: DLKMTQSPSSMYASLGERVTITCKASQDINSYLSWFQQKPGKSPKTLIYRANRLLDGVPSRFSGSGSGQDYSLTISSLEYEDMGIYYCLQYDEFPYTFGGGTKLEIK
notes: also called mAb104-409B11E12
Take B3: the binding result (with APSSWGPRPRRYK-Biotin; in assay [1]; with PSSWGPRPRRYTK-Biotin; in the assay with PAAPSSWGPRPRK-Biotin; with SSWGPRPRRYTVK-Biotin) was “binds” in each case. Also, in assay [2], the “mIL-2 (pg/mL) … antibody 0.016 ug/mL” value was found to be 187 pg/mL. Further, in assay [2], the “mIL-2 (pg/mL) … antibody 0.08 ug/mL” value was 183 pg/mL. The “mIL-2 (pg/mL) … antibody 2 ug/mL” value in assay [2] was 376 pg/mL. In addition, the “mIL-2 (pg/mL) … (so in the source)” value in assay [2] was determined as 374 pg/mL. In addition, the “mIL-2 (pg/mL) … antibody 10 ug/mL” value in assay [2] was 364 pg/mL. The Mean fluorescence intensity in assay [3] came out at 3 MFI.

B4: 409D4E10 (mouse antibody purified from hybridoma) (antibody, V domains shown)
VH: QVQLQQSGAELVRPGASVTLSCKASGNTFTDYEMHWVKQTPVHGLEWIGATDPETDNTAYNQKFKGKAILTTDKSSSTAYMELRSLTSEDSAVYYCITSGWNDWGQGTSLTVSS
VL: DIKMTQSPSSMYASLGERVTITCKASQDINSYLSWFQQKPGKSPKTLIYRANRLLDGVPSRFSGSGSGQDYSLTISSLEYEDMGIYYCLQYNEFPYTFGGGTKLEIK
notes: also called mAb112-409D4E10
In the case of B4, the binding result in the assay with APSSWGPRPRRYK-Biotin is given as “binds”. The binding result in assay [1] is on record as “binds”. The binding result with PSSWGPRPRRYTK-Biotin is “binds”. In addition, in the assay with PAAPSSWGPRPRK-Biotin, the binding result is “binds”. In addition, the binding result with SSWGPRPRRYTVK-Biotin is recorded as “binds”. In assay [2], the “mIL-2 (pg/mL) … antibody 0.016 ug/mL” value was 172 pg/mL; the “mIL-2 (pg/mL) … antibody 0.08 ug/mL” value was 175 pg/mL; the “mIL-2 (pg/mL) … antibody 2 ug/mL” value is 346 pg/mL; the “mIL-2 (pg/mL) … (so in the source)” value amounted to 261 pg/mL. Also, in assay [2], the “mIL-2 (pg/mL) … antibody 10 ug/mL” value was 335 pg/mL. In assay [3], this molecule yielded a Mean fluorescence intensity of 3 MFI.

B5: 556F6B8 (mouse antibody purified from hybridoma) (antibody, V domains shown)
VH: RVQLKQSGPGLVQPSQSLSITCTVSGFSLIKYGVHWVRQSPGEGLEWLGVIWRGGITDYNAAFMSRLSITKDNSKSQVFFKMNSLQADDTAIYYCAKWDGPLAMDYWGQGTSVTVSS
VL: DIVMTQSHKFLSTSVGDRVSITCKASQDVGTTVAWYQQKPGQSPKLLIYWASTRHTGVPDRFTGSGSGTDFTLTISNVQSEDLADYFCQQYSSYPYTFGGGTKLEIK
notes: also called mAb123-556F6B8
B5: in assay [2], the “mIL-2 (pg/mL) … antibody 0.016 ug/mL” value was found to be 88.3 pg/mL; the “mIL-2 (pg/mL) … antibody 0.08 ug/mL” value stood at 141 pg/mL; the “mIL-2 (pg/mL) … antibody 2 ug/mL” value was 270 pg/mL; the “mIL-2 (pg/mL) … (so in the source)” value stood at 214 pg/mL. The “mIL-2 (pg/mL) … antibody 10 ug/mL” value in assay [2] stood at 255 pg/mL. Further, the Mean fluorescence intensity in assay [3] came to 3.4 MFI.
